Experimental data taken from patent US20220281997A1 (NANJING GENSCRIPT BIOTECH, published 2022).

Key:
[1] = biological target: T1, AS154 VHH (camel-derived); test: indirect ELISA, VHH coated
T1 construct: One of the 10 different camel-derived nanobodies; not shown: His tag (VHH-His)
Experimental: (§1) The ELISA plate was coated with 10 different VHHs at […] in 100 μl/well of PBS at 4° C. overnight, respectively; the plate was washed with PBS-T (0.05% Tween) and blocked with 200 μl/well of PBST containing 1% BSA at 37° C. for 0.5 hours; the blocking solution was aspirated and discarded, and 100 μl of 1 μg/ml purified antibodies were added to the first well, diluted in a 3-fold gradient for a total of 11 test concentration gradients and incubated at room temperature for 1 hour; the plate was washed three times with PBST and incubated with 100 μl/well of goat anti-rabbit IgG conjugated with horseradish peroxidase (GenScript Goat Anti-Rabbit IgG Antibody (H&L) [HRP], pAb; CAT #: A00098) at 37° C. for 0.5 hours; the plate was washed five times with PBST, and then a TMB color developing solution was added; and the plate was incubated in the dark at room temperature for 15 minutes. The reaction was stopped by adding 50 μl of 1 M HCl stop solution. The plate was read at 450 nm using a microplate reader; and the binding abilities of 15 clones to VHH-His were obtained (as shown in FIGS. 6a and 6b). […] On one hand, the affinities of the antibody of the same camel-derived nanobody to different camel-derived nanobodies were different; on the other hand, the affinities of different antibodies of camel-derived nanobodies to the same camel-derived nanobody were different. However, on the whole, all the 15 purified antibodies can be recognized with 10 different camel-derived nanobodies.

[2] = biological target: T2, AS325 VHH (camel-derived); test: indirect ELISA, VHH coated
T2 construct: One of the 10 different camel-derived nanobodies; not shown: His tag (VHH-His)
T2 sequence (VHH, as listed by the source): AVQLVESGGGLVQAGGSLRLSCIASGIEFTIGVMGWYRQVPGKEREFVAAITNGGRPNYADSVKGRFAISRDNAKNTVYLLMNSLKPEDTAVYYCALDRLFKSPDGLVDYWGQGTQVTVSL
Experimental: as §1

[3] = biological target: T3, AS656 VHH (camel-derived); test: indirect ELISA, VHH coated
T3 construct: One of the 10 different camel-derived nanobodies; not shown: His tag (VHH-His)
T3 sequence (VHH, as listed by the source): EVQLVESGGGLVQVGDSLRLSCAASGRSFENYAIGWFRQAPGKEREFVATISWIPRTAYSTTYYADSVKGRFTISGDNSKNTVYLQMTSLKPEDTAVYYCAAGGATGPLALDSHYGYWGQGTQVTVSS
Experimental: as §1

[4] = biological target: T4, AS673 VHH (camel-derived); test: indirect ELISA, VHH coated
T4 construct: One of the 10 different camel-derived nanobodies; not shown: His tag (VHH-His)
T4 sequence (VHH, as listed by the source): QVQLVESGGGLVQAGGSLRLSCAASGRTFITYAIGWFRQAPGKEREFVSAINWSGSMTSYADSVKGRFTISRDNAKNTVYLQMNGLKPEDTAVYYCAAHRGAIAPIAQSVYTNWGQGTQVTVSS
Experimental: as §1

[5] = biological target: T5, AS587 VHH (camel-derived); test: indirect ELISA, VHH coated
T5 construct: One of the 10 different camel-derived nanobodies; not shown: His tag (VHH-His)
T5 sequence (VHH, as listed by the source): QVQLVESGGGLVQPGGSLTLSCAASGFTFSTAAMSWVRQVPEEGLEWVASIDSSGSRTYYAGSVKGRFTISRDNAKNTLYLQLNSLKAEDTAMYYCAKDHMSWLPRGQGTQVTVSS
Experimental: as §1

[6] = biological target: T6, AS588 VHH (camel-derived); test: indirect ELISA, VHH coated
T6 construct: One of the 10 different camel-derived nanobodies; not shown: His tag (VHH-His)
T6 sequence (VHH, as listed by the source): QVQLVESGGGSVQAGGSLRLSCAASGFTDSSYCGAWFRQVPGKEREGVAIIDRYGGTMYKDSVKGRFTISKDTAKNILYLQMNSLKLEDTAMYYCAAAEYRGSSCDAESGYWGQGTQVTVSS
Experimental: as §1

[7] = biological target: T7, AS200 VHH (camel-derived); test: indirect ELISA, VHH coated
T7 construct: One of the 10 different camel-derived nanobodies; not shown: His tag (VHH-His)
T7 sequence (VHH, as listed by the source): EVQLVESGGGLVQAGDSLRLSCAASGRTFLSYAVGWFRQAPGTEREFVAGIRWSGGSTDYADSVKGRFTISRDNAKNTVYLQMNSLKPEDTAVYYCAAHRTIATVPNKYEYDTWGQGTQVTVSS
Experimental: as §1

[8] = biological target: T8, AS988 VHH (camel-derived); test: indirect ELISA, VHH coated
T8 construct: One of the 10 different camel-derived nanobodies; not shown: His tag (VHH-His)
T8 sequence (VHH, as listed by the source): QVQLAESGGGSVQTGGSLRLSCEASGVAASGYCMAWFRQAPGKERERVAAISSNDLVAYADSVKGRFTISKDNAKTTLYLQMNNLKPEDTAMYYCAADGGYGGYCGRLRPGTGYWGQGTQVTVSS
Experimental: as §1

[9] = biological target: T9, AS675 VHH (camel-derived); test: indirect ELISA, VHH coated
T9 construct: One of the 10 different camel-derived nanobodies; not shown: His tag (VHH-His)
T9 sequence (VHH, as listed by the source): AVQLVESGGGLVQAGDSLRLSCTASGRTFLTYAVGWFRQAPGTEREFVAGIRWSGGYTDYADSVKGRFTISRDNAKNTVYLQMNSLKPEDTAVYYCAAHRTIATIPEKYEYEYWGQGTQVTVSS
Experimental: as §1

[10] = biological target: T10, AS519 VHH (camel-derived); test: indirect ELISA, VHH coated
T10 construct: One of the 10 different camel-derived nanobodies; not shown: His tag (VHH-His)
T10 sequence (VHH, as listed by the source): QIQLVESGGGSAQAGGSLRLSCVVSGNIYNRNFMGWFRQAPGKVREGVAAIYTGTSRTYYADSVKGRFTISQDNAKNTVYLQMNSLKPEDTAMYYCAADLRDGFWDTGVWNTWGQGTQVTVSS
Experimental: as §1

[11] = biological target: T11, His-tag camel-derived nanobody AS718 VHH-His (camel-derived); test: indirect ELISA, AS718 VHH-His coated, hybridoma supernatant
T11 construct: Immunogen; recombinantly expressed with a C-terminal His tag; also called immunogen AS718; immunogen AS718 VHH-His; not shown: C-terminal His tag
T11 sequence (VHH, as listed by the source): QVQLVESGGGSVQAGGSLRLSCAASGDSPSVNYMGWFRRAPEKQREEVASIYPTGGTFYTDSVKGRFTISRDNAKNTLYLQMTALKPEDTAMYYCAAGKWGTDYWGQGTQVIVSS
Experimental: The rabbit spleen was extracted and homogenized to produce a single-cell suspension, and a single-cell suspension of myeloma cells was prepared at the same time. 1.0×10⁸ splenocytes were fused with 1.2×10⁵ myeloma cells by electrofusion; the fused cells were resuspended in 100 ml of DMEM/10% FBS culture medium containing hybridoma selective agents, thymidine, hypoxanthine and aminopterin, and transferred to a 150×96-well plate in a volume of 100 μl with a pipette; and the plate was incubated at 37° C. in 6% CO₂. After 9 days of incubation, the indirect ELISA was used to evaluate the binding ability of the antibody in the supernatant to VHH-His, indicating the presence of the antibody to VHH-His.
The ELISA plate was coated with 100 μl/well of 0.5 μg/ml VHH-His or His protein in PBS at 4° C. overnight; the plate was washed with PBS-T (0.05% Tween20) and blocked with 200 μl/well of PBST containing 1% BSA at 37° C. for 0.5 hours; the blocking solution was aspirated and discarded, and 100 μl of hybridoma cell culture supernatant was added to each well and then incubated at room temperature for 1 hour; after the incubation, the supernatant was discarded, and the plate was washed three times with PBST and incubated with 100 μl/well of goat anti-rabbit IgG conjugated with horseradish peroxidase (GenScript Goat Anti-Rabbit IgG Antibody (H&L) [HRP], pAb; CAT #: A00098) at 37° C. for 0.5 hours; the plate was washed five times with PBST, and then a TMB color developing solution was added; and the plate was incubated in the dark at room temperature for 15 minutes. The reaction was stopped by adding 50 μl of 1 M HCl stop solution. The plate was read at 450 nm using a microplate reader. In FIG. 3, by the mode of indirect ELISA, immunogen AS718 VHH-His was used to coat the ELISA detection plate, and the titers of the supernatant stock solutions of 15 parent clones were detected by OD450 reading, and the cross-reactions thereof with the His-tag protein were detected at the same time to exclude non-specific combinations. In the experiment, the positive serum was used as a positive control for immunogen AS718 VHH-His, and the Anti-His antibody was used as a positive control for detection target His-tag protein in the reverse screening. The detection value greater than 0.5 was determined to be positive, and the detection value less than 0.2 was determined to be negative.

[12] = biological target: T1, AS154 VHH; test: SPR, Biacore 8K; VHH-His captured on anti-His antibody chip
Source text: (§2) The camel-derived nanobody with the lowest affinity to the cloned antibody was AS587, and the affinity reached 2.2 nmol.

[13] = biological target: T7, AS200 VHH; test: as above
Source text: as §2

[14] = biological target: T9, AS675 VHH; test: as above
Source text: as §2

Measured: binding result

T1 sequence (VHH, as listed by the source): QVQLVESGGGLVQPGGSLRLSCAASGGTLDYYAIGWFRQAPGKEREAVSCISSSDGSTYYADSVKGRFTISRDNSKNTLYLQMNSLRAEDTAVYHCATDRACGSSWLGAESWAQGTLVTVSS

B1: R166.H9 (antibody, V domains shown)
VH: QSLEESGGRLVTPGTPLTLTCTASGFSLNNYNMIWVRQAPGEGLEWIGMIGDGDDAAWYASWAKGRFTISKTSTTVDLEVTSLTTEDTAIYFCARYLSFTRLDLWGQGTLVTVSS
VL: AVLTQTPSPVSAAVGGTVTINCQSSQSVYHNNWLAWYQQKPGQPPKLLIYGAATLASGVPSRFKGSGSGTQFTFTITDVQCDDVGTYYCAGVYNDDSENAFGGGTEVVVKG
notes: Rabbit monoclonal; also called clone R166.H9
not listed: [12] | [13] | [14]
binds: all other assays above

B2: R166.E5 (antibody, V domains shown)
VH: QSLEESGGRLVTPGTPLTLTCTASGFSLSGYYMIWVRQAPGKGLEYIGIVTSSGSTHYASWANGRFAISKTSSTTVDLKMPSLTTEDTATYFCAREGGWAFDLWGQGTLVTVSS
VL: QVLTQTPFSVSTAVGGTVTINCQSSESVANSNWLSWYQQKPGQPPKLLIYWASKLASGVPSRFSGSGSGTQFTLTISGVQCADAATYYCQGGYTSDRRAFGGGTEVVVKG
notes: Rabbit monoclonal; also called clone R166.E5
not listed: [12] | [13] | [14]
binds: all other assays above

B3: R166.G3 (antibody, V domains shown)
VH: QSVEESGGRLVTPGTPLTLTCTVSGIDLSRYAMGWVRQAPGKGLEYIGIIGYGGNTNYANWAKGRFTISKTSSTTVDLKMTSPTTEDTATYFCARDNKSGGNNGYPYYGLDLWGPGTLVTVSS
VL: AYDMTQTPASVEVPVGGTVTINCQASQSISSHLAWYQQKRGQPPKVLIYYASTLASGVSSRFKGSGSGTEYTLTISGVECADAATYFCHQSYSGSDVDNTFGGGTEVVVRG
notes: Rabbit monoclonal; also called clone R166.G3
not listed: [12] | [13] | [14]
binds: all other assays above

B4: R166.H10 (antibody, V domains shown)
VH: QSLEESGGRLVTPGTPLTLTCTASGFSLSSYWMSWVRQAPGKGLEYIGIISGSGSTYYATWAKGRFTISKTSSTTVDLKITSPTTEDTATYFCARGNPHYSFGFNIWGPGTLVTVSL
VL: DIVMTQTPASVSEPVGGTVTINCQASESIYSWLSWYQQKPGQPPKLLIYSASYLASGVPSQFRGSGSGTEYTLTISDLECADAATYYCQYNYDSGDGITNGFGGGTEVVVKG
notes: Rabbit monoclonal; also called clone R166.H10
not listed: [12] | [13] | [14]
binds: all other assays above

B5: R166.E3 (antibody, V domains shown)
VH: QSLEESGGRLVTPGTPLTLTCTVSGIDLSSCVLIWVRQAPEKGLEWIGFIYGSGNAYYANWAKGRFTISKTSSTTVDLKITSPTTEDTATYFCARSQEDDSFGYGFNLWGQGTLVTVSS
VL: AYDMTQTPASVEVAVGGTVTINCQASQSIGTYLSWYQQKPGQPPKLLIYRASTLTSGVSSRFKGSGSGTQFTLTISGVECADAATYYCQEGYSDINVNNIFGGGTEVVVKG
notes: Rabbit monoclonal; also called clone R166.E3
not listed: [12] | [13] | [14]
binds: all other assays above

B6: R166.C5 (antibody, V domains shown)
VH: QSVEESGGRLVTPGTPLTLTCTVSGFSLRNFAMSWVRQAPGKGLEWIGIIYSGGTRDYATWAKGRFTISKTSTTVDLKMTSPTTEDTATYFCARDRSPDYSAAFLLWGQGTLVTVSS
VL: IVMTQTPSSKSVPVGDTVTINCQASESVYSNNHLAWFQQKPGQPPKLLIYSASTLESGVPSRFKGSGSGTQFTLTISGVQCDDAATYYCAGYKSSDTDGTSFGGGTEVVVKG
notes: Rabbit monoclonal; also called clone R166.C5; antibody clone R166.C5
binds: [12] | [13] | [14]

B7: R166.A5 (antibody, V domains shown)
VH: QSVEESGGRLVTPGTPLTLTCTVSGFSLNNYTVIWVRQAPGKGLEWIGIIFGSGGTYYATWAEGRFTISRTSTTVDLKMTSPTTEDTATYFCARGYFGNTFWAMDPWGPGTLVTVSS
VL: NIVMTQTPASVSGAVGGTVTIKCQASQSISTYLSWYQQKPGQPPKLLIYQASELAYGVSSRFKGSGSGTEFTLTISGVECADAATYYCQQGYSDINVDNFFGGGTEVVVKG
notes: Rabbit monoclonal; also called clone R166.A5; antibody clone R166.A5
not listed: [12] | [13] | [14]
binds: all other assays above
